Substitutions are numbered along the chain they refer to. Like-named read-outs stand apart in the source and are kept apart here. Values belong to the binder of their own block, whether it stands above or below them.
Tests used:
[1] = target: T1, human IL-21 receptor (IL-21R) on cells (human, UniProt Q9HBE5 20-538; P31785 23-369); test: cell-based or functional assay
[2] = target: T1, human IL-21 receptor (IL-21R) on cells; test: cell-based or functional assay; remark: listed apart in the source
[3] = target: T1, human IL-21 receptor (IL-21R) on cells; test: cell-based or functional assay; remark: listed apart in the source
[4] = target: T1, human IL-21 receptor (IL-21R) on cells; test: cell-based or functional assay; remark: listed apart in the source
[5] = target: T1, human IL-21 receptor (IL-21R) on cells; test: cell-based or functional assay; remark: listed apart in the source
[6] = target: recombinant human IL-21 (rhIL-21) (human, UniProt Q9HBE4 30-162, limits assumed); test: cell-based or functional assay
[7] = target: T2, recombinant IL-21Ra-Fc (AcroBiosystems) (human, UniProt Q9HBE5 20-232); test: SPR, not shown
T2 construct: bought; also called rIL-21Rα; rIL-21Ra-Fc; not shown: Fc of the bought reagent, not described
T2 sequence (Q9HBE5 20-232): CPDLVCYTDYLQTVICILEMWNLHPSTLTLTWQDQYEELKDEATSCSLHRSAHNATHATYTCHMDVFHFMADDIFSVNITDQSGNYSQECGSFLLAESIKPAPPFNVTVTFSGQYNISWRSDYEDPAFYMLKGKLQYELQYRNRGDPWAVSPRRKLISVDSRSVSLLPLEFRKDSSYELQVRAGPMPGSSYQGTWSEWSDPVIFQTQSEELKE

T1 sequence (Q9HBE5 20-538, chain 1 of 2): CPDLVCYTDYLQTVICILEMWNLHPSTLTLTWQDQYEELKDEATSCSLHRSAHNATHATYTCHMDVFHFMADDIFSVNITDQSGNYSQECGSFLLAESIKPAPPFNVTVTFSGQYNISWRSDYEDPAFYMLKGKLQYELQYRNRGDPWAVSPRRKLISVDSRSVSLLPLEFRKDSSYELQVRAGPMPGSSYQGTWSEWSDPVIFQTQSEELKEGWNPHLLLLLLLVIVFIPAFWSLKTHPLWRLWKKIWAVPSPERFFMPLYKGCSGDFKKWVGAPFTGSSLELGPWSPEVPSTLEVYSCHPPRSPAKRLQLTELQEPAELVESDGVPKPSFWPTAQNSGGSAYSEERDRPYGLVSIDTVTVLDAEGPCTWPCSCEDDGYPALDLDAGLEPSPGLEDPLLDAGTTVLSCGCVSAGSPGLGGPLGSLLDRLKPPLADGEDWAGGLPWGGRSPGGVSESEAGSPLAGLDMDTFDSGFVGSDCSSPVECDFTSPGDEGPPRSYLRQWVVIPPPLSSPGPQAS
T1 sequence (P31785 23-369, chain 2 of 2): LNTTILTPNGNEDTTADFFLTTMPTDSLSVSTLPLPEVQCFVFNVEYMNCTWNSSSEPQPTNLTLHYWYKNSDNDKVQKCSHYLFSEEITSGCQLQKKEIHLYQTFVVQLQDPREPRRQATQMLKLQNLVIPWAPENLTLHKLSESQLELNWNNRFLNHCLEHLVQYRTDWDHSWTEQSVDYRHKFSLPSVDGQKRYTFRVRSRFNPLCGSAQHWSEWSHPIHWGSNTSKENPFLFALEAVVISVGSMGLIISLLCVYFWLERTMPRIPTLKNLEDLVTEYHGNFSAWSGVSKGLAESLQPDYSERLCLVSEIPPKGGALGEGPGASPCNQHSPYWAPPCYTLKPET

B1: PAP722 (bispecific antibody, human IgG1, kappa, lambda, L234A L235A)
heavy 1: EVQLLESGGGLVQPGGSLRLSCAASGFTFSINAMTWVRQAPGKGLEWVSTISGSGFSTYYADSLKGRFTISRDNSKNTLYLQMNSLRAEDTAVYYCAKEVYGDYWGQGTLVTVSSASTKGPSVFPLAPSSKSTSGGTAALGCLVKDYFPEPVTVSWNSGALTSGVHTFPAVLQSSGLYSLSSVVTVPSSSLGTQTYICNVNHKPSNTKVDKRVEPKSCDKTHTCPPCPAPEAAGGPSVFLFPPKPKDTLMISRTPEVTCVVVDVSHEDPEVKFNWYVDGVEVHNAKTKPREEQYNSTYRVVSVLTVLHQDWLNGKEYKCKVSNKALAAPIEKTISKAKGQPREPQVCTLPPSREEMTKNQVSLSCAVKGFYPSDIAVEWESNGQPENNYKTTPPVLDSDGSFFLVSKLTVDKSRWQQGNVFSCSVMHEALHNHYTQKSLSLSPGK
light 1: not shown
heavy 2: QVQLQESGPGLVKPSETLSLTCTVSGGSISSDYWGWIRQPPGKGLEWIGYISSRGSTNYNPSLKRRVTISVDTSRNQFSLKLSSVTAADTAVYYCARSAGVADFDFWGQGTLVTVSSASTKGPSVFPLAPSSKSTSGGTAALGCLVKDYFPEPVTVSWNSGALTSGVHTFPAVLQSSGLYSLSSVVTVPSSSLGTQTYICNVNHKPSNTKVDKRVEPKSCDKTHTCPPCPAPEAAGGPSVFLFPPKPKDTLMISRTPEVTCVVVDVSHEDPEVKFNWYVDGVEVHNAKTKPREEQYNSTYRVVSVLTVLHQDWLNGKEYKCKVSNKALAAPIEKTISKAKGQPREPQVYTLPPCREEMTKNQVSLWCLVKGFYPSDIAVEWESNGQPENNYKTTPPVLDSDGSFFLYSKLTVDKSRWQQGNVFSCSVMHEALHNHYTQKSLSLSPGK
light 2: not shown
- Δ [1]: 4.3
- EC50B, pSTAT3+ Jurkat PD-1 cells, PD-1 blocked [2]: 1.97 nM
- EC50NB, pSTAT3+ Jurkat PD-1 cells [2]: 0.019 nM

B3: YWW798 (bispecific antibody, human IgG1, kappa, lambda, L234A L235A)
heavy 1: B1 heavy 1
light 1: not shown
heavy 2: B1 heavy 2 with S53Y, R54S, R65S, A102T, F106A
light 2: not shown
- Δ [1]: 3.45
- EC50B, pSTAT3+ Jurkat PD-1 cells, PD-1 blocked [4]: 0.526 nM
- EC50NB, pSTAT3+ Jurkat PD-1 cells [4]: 0.004 nM

B8: DMT806 (bispecific antibody, human IgG1, kappa, lambda, L234A L235A)
heavy 1: B1 heavy 1
light 1: not shown
heavy 2: not shown
light 2: DIQMTQSPSSVSASVGDRVTITCRASQGISSWLAWYQHKPGKAPKLLIYVASSLQSGVPSRFSGSGSGTDFTLTISSLQPEDFATYYCQQANSFPLTFGGGTKVEIKRTVAAPSVFIFPPSDEQLKSGTASVVCLLNNFYPREAKVQWKVDNALQSGNSQESVTEQDSKDSTYSLSSTLTLSKADYEKHKVYACEVTHQGLSSPVTKSFNRGEC
- Δ [1]: 2.79
- EC50B, pSTAT3+ Jurkat PD-1 cells, PD-1 blocked [5]: 12.4 nM
- EC50NB, pSTAT3+ Jurkat PD-1 cells [5]: 0.17 nM

B10: FYP014 (antibody, human IgG1, V domains shown)
VH: EVQLVESGGGLVKPGGSLRLSCAASGFIFSSYSMNWVRQAPGKGLEWVSSITSGSYYIHYADSVKGRFTISRDNAKNSLYLQMNSLRAEDTAVYYCVRERGWGYYGMDVWGQGTTVTVSS
VL: AIQLTQSPSSLSASVGDRVTITCRASQDIDSALAWYQQKPGKAPKILIHDASSLESGVPSRFSGSGSGTDFTLTISSLQPEDFATYYCQQFNSYPYTFGQGTKLEIK
notes: human IgG1; also called EP3103813A1 clone 366.328.10.63
- % pSTAT3+ Jurkat cells, 0.1 nM rhIL-21 + 0 nM antibody [6]: 82.7%
- % pSTAT3+ Jurkat cells, 0.1 nM rhIL-21 + 0.1012 nM antibody [6]: 59.4%
- % pSTAT3+ Jurkat cells, 0.1 nM rhIL-21 + 0.1602 nM antibody [6]: 6.07%
- % pSTAT3+ Jurkat cells, 0.1 nM rhIL-21 + 0.2536 nM antibody [6]: 4.93%
- % pSTAT3+ Jurkat cells, 0.1 nM rhIL-21 + 0.4015 nM antibody [6]: 4.39%
- % pSTAT3+ Jurkat cells, 0.1 nM rhIL-21 + 0.6355 nM antibody [6]: 5.32%
- % pSTAT3+ Jurkat cells, 0.1 nM rhIL-21 + 1.006 nM antibody [6]: 5.9%
- % pSTAT3+ Jurkat cells, 0.1 nM rhIL-21 + 1.5925 nM antibody [6]: 4.78%
- % pSTAT3+ Jurkat cells, 0.1 nM rhIL-21 + 2.5209 nM antibody [6]: 5.16%
- % pSTAT3+ Jurkat cells, 0.1 nM rhIL-21 + 3.9906 nM antibody [6]: 4.64%
- % pSTAT3+ Jurkat cells, 0.1 nM rhIL-21 + 6.3171 nM antibody [6]: 3.99%
- % pSTAT3+ Jurkat cells, 0.1 nM rhIL-21 + 10 nM antibody [6]: 3.83%
- binding result [7]: binds

The remaining lines, values ahead:

- EC50B, pSTAT3+ Jurkat PD-1 cells, PD-1 blocked [3]: 0.97 nM
- EC50NB, pSTAT3+ Jurkat PD-1 cells [3]: 0.036 nM
B2: ZNP367 (bispecific antibody, human IgG1, kappa, lambda, L234A L235A)
heavy 1: B1 heavy 1
light 1: not shown
heavy 2: B1 heavy 2 with Y33F, A102T
light 2: not shown

- EC50B, pSTAT3+ Jurkat PD-1 cells, PD-1 blocked [3]: 2.3 nM
- EC50NB, pSTAT3+ Jurkat PD-1 cells [3]: 0.039 nM
B4: VCG677 (bispecific antibody, human IgG1, kappa, lambda, L234A L235A)
heavy 1: B1 heavy 1
light 1: not shown
heavy 2: B1 heavy 2 with Y33F, A102T
light 2: not shown

- EC50B, pSTAT3+ Jurkat PD-1 cells, PD-1 blocked [3]: 0.51 nM
- EC50NB, pSTAT3+ Jurkat PD-1 cells [3]: 0.227 nM
B5: GOP758 (bispecific antibody, human IgG1, kappa, lambda, L234A L235A)
heavy 1: B1 heavy 1
light 1: not shown
heavy 2: B1 heavy 2 with Y33F, A102T
light 2: DIQMTQSPSSVSASVGDRVTITCRASQGISSWLAWYQHKPGKAPKLLIYVASSLQGGGGSQGQDRHMIRMRQLIDIVDQLKNYVNDLVPEFLPAPEDVETNCEWSAFSCFQKAQLKSANTGNNERIINVSIKKLKRKPPSTNAGRRQKHRLTCPSCDSYEKKPPKEFLERFKSLLQKMIHQHLSSRTHGSEDSGGGGSSGVPSRFSGSGSGTDFTLTISSLQPEDFATYYCQQANSFPLTFGGGTKVEIKRTVAAPSVFIFPPSDEQLKSGTASVVCLLNNFYPREAKVQWKVDNALQSGNSQESVTEQDSKDSTYSLSSTLTLSKADYEKHKVYACEVTHQGLSSPVTKSFNRGEC

- Δ [1]: 4.21
- EC50B, pSTAT3+ Jurkat PD-1 cells, PD-1 blocked [2]: 1.33 nM
- EC50NB, pSTAT3+ Jurkat PD-1 cells [2]: 0.009 nM
B6: YCV364 (bispecific antibody, human IgG1, kappa, lambda, L234A L235A)
heavy 1: B1 heavy 1
light 1: not shown
heavy 2: B1 heavy 2 with Y33F
light 2: not shown

- Δ [1]: 8.18
- EC50B, pSTAT3+ Jurkat PD-1 cells, PD-1 blocked [4]: 1.52 nM
- EC50NB, pSTAT3+ Jurkat PD-1 cells [4]: 0.003 nM
B7: WBL338 (bispecific antibody)
heavy 1: B1 heavy 1
light 1: not shown
heavy 2: B1 heavy 2 with S53Y, R65S, A102T, F106W
light 2: not shown

- Δ [1]: 2.96
- EC50B, pSTAT3+ Jurkat PD-1 cells, PD-1 blocked [4]: 0.951 nM
- EC50NB, pSTAT3+ Jurkat PD-1 cells [4]: 0.004 nM
B9: TVU155 (bispecific antibody, human IgG1, kappa, lambda, L234A L235A)
heavy 1: B1 heavy 1
light 1: not shown
heavy 2: B1 heavy 2 with S53Y, R65S, A102T, F106A
light 2: not shown

Reference: patent EP4671273A1 (Anaveon AG, dated 2025)
